Publication PMC6021111, “Murine leukemia virus p12 tethers the capsid-containing pre-integration complex to chromatin by binding directly to host nucleosomes in mitosis” (PLoS Pathogens, 2018)

System: GST-p12 phosphorylation in 293T cells
Assay: nano LC-MS/MS phosphopeptide identification of GST-p12
Type: cell-based
Description: We next used nanoscale liquid chromatography coupled to tandem mass spectrometry (nano LC–MS/MS) to identify phosphopeptides of GST-p12_WT precipitated from 293T cells. The phosphorylation sites in the high confidence tryptic-peptides (<1% false discovery rate, FDR) were assigned using the probability-based phosphoRS algorithm (Table 1). A peptide was counted as being phosphorylated at a specific residue if its phosphoRS site probability was >50%. For each tryptic peptide, the phosphorylation level at a particular site was estimated by dividing the phosphorylated peptide count by the total peptide count. This analysis, carried out with two biological replicates, confirmed S61 to be the main site of phosphorylation on GST-p12_WT, with ~45% of S61-containing peptides phosphorylated at this residue (Table 1). We also identified T52, S65, S78, T80 and S81 as additional sites of low-level phosphorylation on p12 (Table 1). […] The absence of a detectable association between GST-p12 and mitotic chromatin is therefore unlikely to result from a lack of phosphorylation of recombinant p12.
To identify phosphopeptides of GST-p12, bead eluates were separated by SDS-PAGE and stained using SimplyBlue safe stain (Thermo Fisher Scientific). The band corresponding to GST-p12 was then excised and submitted for nano-LC-MS/MS analysis as described in [54], but without phosphopeptides enrichment. The probability-based phosphoRS algorithm was used for assigning phosphorylation sites in the detected peptides.

B1: GST-p12_WT: N-terminally GST-tagged Mo-MLV p12 (protein)
chain: PALTPSLGAKPKPQVLSDSGGPLIDLLTEDPPPYRDPRPPPSDRDGNGGEATPAGEAPDPSPMASRLRGRREPPVADSTTSQAF
modifications: left off: GST, N-terminal, kept
notes: N-terminally GST-tagged Mo-MLV p12
Fraction of phosphorylated peptides (S61, peptide aa 36–66, 1 missed cleavage, replicate R1): 0.47 | Fraction of phosphorylated peptides (S61, peptide aa 36–66, 1 missed cleavage, replicate R2): 0.52 | Fraction of phosphorylated peptides (S61, peptide aa 45–66, 0 missed cleavages, replicate R1): 0.36 | Fraction of phosphorylated peptides (S61, peptide aa 45–66, 0 missed cleavages, replicate R2): 0.49 | Fraction of phosphorylated peptides (S65, peptide aa 45–66, 0 missed cleavages, replicate R1): 0.01 | Fraction of phosphorylated peptides (S65, peptide aa 45–66, 0 missed cleavages, replicate R2): 0.07 | Fraction of phosphorylated peptides (S78, peptide aa 72–84+ linker, 0 missed cleavages, replicate R1): 0.03 | Fraction of phosphorylated peptides (S78, peptide aa 72–84+ linker, 0 missed cleavages, replicate R2): 0.03 | Fraction of phosphorylated peptides (S81, peptide aa 71–84+ linker, 1 missed cleavage, replicate R1): 0.10 | Fraction of phosphorylated peptides (S81, peptide aa 72–84+ linker, 0 missed cleavages, replicate R1): 0.03 | Fraction of phosphorylated peptides (S81, peptide aa 72–84+ linker, 0 missed cleavages, replicate R2): 0.01 | Fraction of phosphorylated peptides (T52, peptide aa 45–66, 0 missed cleavages, replicate R1): 0.13 | Fraction of phosphorylated peptides (T52, peptide aa 45–66, 0 missed cleavages, replicate R2): 0.04 | Fraction of phosphorylated peptides (T80, peptide aa 71–84+ linker, 1 missed cleavage, replicate R1): 0.04 | Fraction of phosphorylated peptides (T80, peptide aa 72–84+ linker, 0 missed cleavages, replicate R1): 0.01
